Laboratory results: paper PMC6404975

Key:
glucagon = glucagon (UniProt P01275 53-81); test: electrochemical aptamer-based sensor
[1] = target: insulin (bovine pancreas) (Bos taurus, UniProt P01317;P01317 25-54;85-105); test: electrochemical aptamer-based sensor
insulin (bovine pancreas), sequence (P01317 25-54, chain 1 of 2): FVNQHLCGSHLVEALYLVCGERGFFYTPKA
insulin (bovine pancreas), sequence (P01317 85-105, chain 2 of 2): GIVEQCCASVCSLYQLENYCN

glucagon, sequence (P01275 53-81): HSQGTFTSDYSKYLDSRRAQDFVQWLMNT

B1: Insulin-End (IGA3) (structured_DNA)
DNA: AAAAGGTGGTGGGGGGGGTTGGTAGGGTGTCTTCT
modifications: 5' thiol-C6 (immobilised on gold); 3' methylene blue
B1 was tested, and the binding result (glucagon) was “no binding” and the Kd [1] was 240 ± 65 nM.
